According to patent US7723122:

Biological target: protein A (UniProt P38507)
Test: SPR, BIACORE 3000, protein A immobilised on CM5 chip, 4.4 ug/ml BSA in flow at 20 ul/min; nonlinear regression with Rmax fixed at 880 RU

“BSA (molecular weight: 66,200) (from UniProt P02769 25-607) (other; other documents disagree on this pair)” gave a koff of 0.11 s⁻¹ and a kon of 880000 M⁻¹ s⁻¹.
